From PMC10397247 come the findings set out here.

Test [1] has as its target T1, 4H3907-bN.
T1 chain: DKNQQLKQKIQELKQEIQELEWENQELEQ
The experiment in a line: two-hybrid library CCNG1.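 Note: natural log of median RNA to DNA barcode read ratio; higher means stronger binding.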

Test [2] concerns the target T2, 4H850-bA.
T2 chain: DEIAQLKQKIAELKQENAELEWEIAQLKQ
Nature of the test: two-hybrid library CCNG1.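 Note: natural log of median RNA to DNA barcode read ratio; higher means stronger binding.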

Test [3] deals with T3, 4H3961-bN.
T3 chain: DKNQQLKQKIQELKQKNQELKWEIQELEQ
The experiment in a line: two-hybrid library CCNG1.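 Note: natural log of median RNA to DNA barcode read ratio; higher means stronger binding.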

In test [4] the target is T4, 4H2745-bN.
T4 chain: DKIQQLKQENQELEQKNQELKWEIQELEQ
Nature of the test: two-hybrid library CCNG1.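 Note: natural log of median RNA to DNA barcode read ratio; higher means stronger binding.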

In test [5] the target is T5, 4H363-bN.
T5 chain: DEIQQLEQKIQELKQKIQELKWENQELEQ
Nature of the test: two-hybrid library CCNG1.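 Note: natural log of median RNA to DNA barcode read ratio; higher means stronger binding.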

The target of test [6] is T6, 4H344-bN.
T6 chain: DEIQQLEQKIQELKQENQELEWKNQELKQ
The experiment in a line: two-hybrid library CCNG1.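 Note: natural log of median RNA to DNA barcode read ratio; higher means stronger binding.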

The target of test [7] is T7, 4H470-bN.
T7 chain: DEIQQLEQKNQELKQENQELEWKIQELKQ
The experiment in a line: two-hybrid library CCNG1.

Test [8] concerns the target T8, 4H816-AA.
T8 chain: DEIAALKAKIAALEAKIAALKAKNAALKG
The experiment in a line: two-hybrid library CCmax. The conditions noted are these: mean of both orientations.

The target in test [9] is T9, 4H2687-AA.
T9 chain: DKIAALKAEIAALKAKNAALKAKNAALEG
Nature of the test: two-hybrid library CCmax. The conditions noted are these: mean of both orientations.

In test [10] the target is T10, 4H3409-AA.
T10 chain: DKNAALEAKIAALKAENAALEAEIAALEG
The experiment in a line: two-hybrid library CCmax. The conditions noted are these: mean of both orientations.

Test [11] addresses T11, 4H278-AA.
T11 chain: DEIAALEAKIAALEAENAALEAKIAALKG
Nature of the test: two-hybrid library CCmax. The conditions noted are these: mean of both orientations.

The target of test [12] is T12, 4H390-AA.
T12 chain: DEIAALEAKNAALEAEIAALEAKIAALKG
The experiment in a line: two-hybrid library CCmax. The conditions noted are these: mean of both orientations.

Test [13] concerns the target T13, 4H2512-AA.
T13 chain: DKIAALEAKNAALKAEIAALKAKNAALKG
The experiment in a line: two-hybrid library CCmax. The conditions noted are these: mean of both orientations.

Test [14] concerns the target T14, 4H2985-AA.
T14 chain: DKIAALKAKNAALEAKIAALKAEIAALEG
The experiment in a line: two-hybrid library CCmax. The conditions noted are these: mean of both orientations.

The target of test [15] is T15, 4H3625-AA.
T15 chain: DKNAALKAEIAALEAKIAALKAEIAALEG
The experiment in a line: two-hybrid library CCmax. The conditions noted are these: mean of both orientations.

The target in test [16] is T16, 4H2646-AA.
T16 chain: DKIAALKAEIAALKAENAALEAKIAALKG
The experiment in a line: two-hybrid library CCmax. The note with it: mean of both orientations.

Test [17] has as its target T17, 4H233-AA.
T17 chain: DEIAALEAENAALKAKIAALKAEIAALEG
Nature of the test: two-hybrid library CCmax. The note with it: mean of both orientations.

Test [18] has as its target T18, 4H2758-AA.
T18 chain: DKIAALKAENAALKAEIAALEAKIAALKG
Nature of the test: two-hybrid library CCmax. The note with it: mean of both orientations.

Test [19] addresses T19, 4H510-AA.
T19 chain: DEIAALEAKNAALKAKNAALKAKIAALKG
The experiment in a line: two-hybrid library CCmax. The conditions noted are these: mean of both orientations.

For test [20], the target named is T20, 4H775-AA.
T20 chain: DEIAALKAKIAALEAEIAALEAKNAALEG
The experiment in a line: two-hybrid library CCmax. The conditions noted are these: mean of both orientations.

The target in test [21] is T21, 4H2187-AA.
T21 chain: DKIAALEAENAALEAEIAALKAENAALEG
Nature of the test: two-hybrid library CCmax. The note with it: mean of both orientations.

Test [22] deals with T22, 4H87-AA.
T22 chain: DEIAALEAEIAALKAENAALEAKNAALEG
The experiment in a line: two-hybrid library CCmax.

Test [23] addresses T23, 4H2705-AA.
T23 chain: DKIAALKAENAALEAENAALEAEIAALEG
Nature of the test: two-hybrid library CCmax. The note with it: mean of both orientations.

Test [24] has as its target T24, 4H3134-AA.
T24 chain: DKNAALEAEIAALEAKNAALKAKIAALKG
Nature of the test: two-hybrid library CCmax. The note with it: mean of both orientations.

For test [25], the target named is T25, 4H1985-AA.
T25 chain: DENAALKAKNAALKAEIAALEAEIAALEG
Nature of the test: two-hybrid library CCmax.

Test [26] addresses T26, 4H2873-AA.
T26 chain: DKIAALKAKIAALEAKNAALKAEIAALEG
Nature of the test: two-hybrid library CCmax. The conditions noted are these: mean of both orientations.

The target in test [27] is T27, 4H3940-AA.
T27 chain: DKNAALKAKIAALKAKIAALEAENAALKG
Nature of the test: two-hybrid library CCmax. The conditions noted are these: mean of both orientations.

The target in test [28] is T28, 4H3632-bN.
T28 chain: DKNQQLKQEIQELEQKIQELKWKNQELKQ
Nature of the test: two-hybrid library CCNG1.

The target in test [29] is T29, 4H3070-bN.
T29 chain: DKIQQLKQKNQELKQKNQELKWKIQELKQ
The experiment in a line: two-hybrid library CCNG1. The conditions noted are these: mean of both orientations.

The target in test [30] is T30, 4H496-bN.
T30 chain: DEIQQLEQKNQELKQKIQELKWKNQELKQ
The experiment in a line: two-hybrid library CCNG1.

The target in test [31] is T31, 4H342-bN.
T31 chain: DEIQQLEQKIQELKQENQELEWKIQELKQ
The experiment in a line: two-hybrid library CCNG1.

B1: 4H2745-bN (peptide)
chain: DKIQQLKQENQELEQKNQELKWEIQELEQ
Regarding B1, the interaction score in test [1] was -1.56; in test [2], -0.544; in test [3] it was -0.46; in test [4] it was -0.754; in test [5], -0.693; in [6] it was -0.786. The molecule further returned an interaction score in test [7] of 1.07.

B2: 4H1985-AA (peptide)
chain: DENAALKAKNAALKAEIAALEAEIAALEG
On to B2, for which the interaction score was -0.103 in [8]; -1.92 in test [9]; -1.05 in test [10]; -1.45 in test [11]; 1.06 in [12]; -1.41 in test [13]. Further, the interaction score in test [14] is -0.418; in test [15], -0.122; in [16], 0.352; in [17], 0.704; in [18], 0.628; in [19], -0.896. The interaction score is -1.28 in [20]; -2.04 in test [21]; -1.37 in test [22]; -1.05 in test [23]; -0.682 in [24]; -1.91 in test [25]. Further, the interaction score was -1.18 in [26] and -0.542 in test [27].

B3: 4H3070-bN (peptide)
chain: DKIQQLKQKNQELKQKNQELKWKIQELKQ
Turning to B3, the interaction score was -1.38 in [28], -1.41 in test [29], -1.31 in [30] and 0.751 in [31].
